Test results published in patent US20150045310A1 (TRUSTEES OF PRINCETON UNIVERSITY, published 2015).
Like-named read-outs stand apart in the source and are kept apart here. Bridges are numbered along the chain shown (N, C = ends). Where no end group is shown, it is not given here. [ ]: non-standard residue; d: D form. eCPX = enhanced circularly permuted OmpX display scaffold; S5 = C=CCCC[C@](C)(N)C(=O)O; linker = not defined here

T1: Bcl-w (biotinylated pro-survival Bcl-2 family protein) (UniProt Q92843 1-164, limits assumed, biotinylated (co-expressed E. coli biotin ligase BirA))
T1 sequence (looked up): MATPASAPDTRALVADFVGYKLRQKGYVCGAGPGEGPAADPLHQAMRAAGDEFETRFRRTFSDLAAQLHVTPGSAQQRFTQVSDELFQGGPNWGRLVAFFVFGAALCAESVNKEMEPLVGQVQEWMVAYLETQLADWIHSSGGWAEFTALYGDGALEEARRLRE


Columns and labels:
[1] = biological target: T2, Mcl-1 (biotinylated pro-survival Bcl-2 family protein) (UniProt Q07820 171-327, limits assumed, biotinylated (co-expressed E. coli biotin ligase BirA)); assay: flow cytometry of E. coli displaying the peptide on eCPX, biotinylated target + streptavidin-PE; apparent Kd
T2 construct: In the functional rows the target is the endogenous Mcl-1 of the human cancer cell lines
T2 sequence (Q07820 171-327 limits assumed): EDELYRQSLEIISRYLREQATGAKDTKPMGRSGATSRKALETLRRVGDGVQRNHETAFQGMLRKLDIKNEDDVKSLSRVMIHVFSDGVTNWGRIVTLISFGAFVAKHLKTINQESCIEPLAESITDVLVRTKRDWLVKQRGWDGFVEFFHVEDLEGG
Procedure: (§1) All binding assays were performed using MC1061 strain. Briefly, a 5 mL culture of a library sample or individual variant was grown to OD₆₀₀˜0.6, and induced with arabinose (0.2%) at RT for 2.5 hours. Cells were pelleted (1 mL culture, 6000 rpm, 5 min) and resuspended in 1 mL PBS. A portion of the cell suspension (50 μL) was mixed with the desired concentration of pro-survival protein to a total volume of 500 μL. The mixture was allowed to rotate at room temperature for 1 hour for equilibrium binding. The cells were pelleted again (6000 rpm, 20 min), resuspended with 100 μL of 50 nM streptavidin-phycoerythrin (SAPE), and incubated on ice in the dark for 30 min. After a final centrifugation, the cell pellets were stored on ice and resuspended in 2 mL of PBS for flow cytometry measurements. A Partec CyFlow ML Flow Cytometer equipped with a 488 nm laser was used to analyze the cells. A FACSVantage SE cell sorter was used for cell sorting in single cell mode.
(§2) A two parameter model was used to extract apparent binding affinity (Kd) from flow cytometry binding experiments.

[2] = biological target: T1, Bcl-w (biotinylated pro-survival Bcl-2 …); assay: as above
Procedure: as §1, §2

[3] = biological target: Bcl-2 (biotinylated pro-survival Bcl-2 family protein) (UniProt P10415 1-217, limits assumed, biotinylated (co-expressed E. coli biotin ligase BirA)); assay: as above
Chain of Bcl-2 (biotinylated pro-survival Bcl-2 family protein) (P10415 1-217 limits assumed): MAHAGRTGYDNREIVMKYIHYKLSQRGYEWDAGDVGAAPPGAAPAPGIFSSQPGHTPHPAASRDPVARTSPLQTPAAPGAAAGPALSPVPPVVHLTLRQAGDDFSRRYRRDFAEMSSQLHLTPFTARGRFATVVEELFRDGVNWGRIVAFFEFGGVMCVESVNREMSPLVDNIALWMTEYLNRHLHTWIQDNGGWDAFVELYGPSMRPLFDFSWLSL
Procedure: as §1, §2

[4] = biological target: T3, Bcl-xL (biotinylated pro-survival Bcl-2 family protein) (UniProt Q07817 1-209, biotinylated (co-expressed E. coli biotin ligase BirA)); assay: as above
T3 sequence (Q07817 1-209): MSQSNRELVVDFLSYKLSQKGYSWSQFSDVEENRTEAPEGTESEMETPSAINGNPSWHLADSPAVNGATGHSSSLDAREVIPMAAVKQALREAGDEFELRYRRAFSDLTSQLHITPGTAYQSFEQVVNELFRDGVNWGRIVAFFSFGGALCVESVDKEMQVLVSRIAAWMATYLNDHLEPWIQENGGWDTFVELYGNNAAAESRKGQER
Procedure: as §1, §2

[5] = biological target: T3, Bcl-xL (biotinylated pro-survival Bcl-2 …); assay: as above; remark: listed apart in the source
Procedure: as §1, §2

[6] = biological target: T3, Bcl-xL (biotinylated pro-survival Bcl-2 …); assay: apparent Kd, bacterial surface display and flow cytometry
Procedure: as §1, §2

[7] = biological target: T2, Mcl-1 (biotinylated pro-survival Bcl-2 …); assay: cell-based or functional assay
[8] = biological target: T2, Mcl-1 (biotinylated pro-survival Bcl-2 …); assay: cell-based or functional assay; remark: listed apart in the source
[9] = biological target: T2, Mcl-1 (biotinylated pro-survival Bcl-2 …); assay: cell-based or functional assay; remark: listed apart in the source
[10] = biological target: T2, Mcl-1 (biotinylated pro-survival Bcl-2 …); assay: cell-based or functional assay; remark: listed apart in the source
[11] = biological target: T2, Mcl-1 (biotinylated pro-survival Bcl-2 …); assay: cell-based or functional assay; remark: listed apart in the source
[12] = biological target: T2, Mcl-1 (biotinylated pro-survival Bcl-2 …); assay: flow cytometry of E. coli displaying the peptide on eCPX, biotinylated target + streptavidin-PE; apparent Kd; remark: listed apart in the source
Procedure: as §1, §2

[13] = biological target: T2, Mcl-1 (biotinylated pro-survival Bcl-2 …); assay: apparent Kd, bacterial surface display and flow cytometry
Procedure: as §1, §2

Binder | Kd [1] [nM] | Kd [2] [nM] | Kd [3] [nM] | Kd [4] [nM] | Kd [5] [nM] | Kd [12] [nM] | further results
WVAQWLRRWGDEFN (also: displayed as fusion to eCPX scaffold (letters not given here), Clone selected against Bcl-xL; not shown: eCPX display scaffold and the linker to it) [Bim BH3 14-mer variant X2-3 displayed on eCPX] | 1300 | 5890 | 929 | 9.28 | 9.28 |  | fold increase in apparent affinity against wild-type Bim 14-mer [6]: 25 fold
WVAQTLRRWGDEFN-{linker-eCPX} (reading uncertain; also: printed as Trp-Val-Ala-Gln-Thr-Leu-Arg-Arg-Trp-Gly-Asp-Glu-Phe-Asn, Clone selected against Bcl-xL; not shown: eCPX display scaffold and its linker, fused C-terminal to the peptide) [Bim BH3 14-mer variant X2-10 displayed on eCPX] |  |  |  |  | 17 |  | 
WLAQLLRRYGDEFN (also: displayed as fusion to eCPX scaffold (letters not given here), Clone selected against Bcl-xL; not shown: eCPX display scaffold and the linker to it) [Bim BH3 14-mer variant X2-8 displayed on eCPX] | 2580 | 946 | 2350 | 17.8 | 17.8 |  | 
WLAQLLR[S5]IGD[S5]IN-NH2 (staple 8-12; N-terminus assumed; SMILES CC[C@H](C)[C@@H]1NC(=O)[C@@](C)(NC(=O)[C@H](CCCNC(=N)N)NC(=O)[C@H](CC(C)C)NC(=O)[C@H](CC(C)C)NC(=O)[C@H](CCC(N)=O)NC(=O)[C@H](C)NC(=O)[C@H](CC(C)C)NC(=O)[C@@H](N)Cc2c[nH]c3ccccc23)CCCC=CCCC[C@@](C)(C(=O)N[C@H](C(=O)N[C@@H](CC(N)=O)C(N)=O)[C@@H](C)CC)NC(=O)[C@H](CC(=O)O)NC(=O)CNC1=O) [stapled M2-4 peptide] |  |  |  |  |  |  | IC50 (µM), MTT cytotoxicity assay, MDA231 cells [7]: 4.4 µM; IC50 (µM), MTT cytotoxicity assay, PC3 cells [8]: 1.4 µM; IC50 (µM), cytotoxicity, HeLa cells [9]: 1.04 µM; IC50 (µM), cytotoxicity, MCF7 cells [9]: 5.72 µM; IC50 (µM), cytotoxicity, MDA231 cells [9]: 4.39 µM; IC50 (µM), cytotoxicity, PC3 cells [9]: 1.36 µM; IC50 (µM), MTT cytotoxicity assay, MCF7 cells [10]: 5.7 µM; IC50 (µM), MTT cytotoxicity assay, HeLa cells [11]: 1 µM
WVAQLLR[S5]IGD[S5]VN-NH2 (staple 8-12; N-terminus assumed; SMILES CC[C@H](C)[C@@H]1NC(=O)[C@@](C)(NC(=O)[C@H](CCCNC(=N)N)NC(=O)[C@H](CC(C)C)NC(=O)[C@H](CC(C)C)NC(=O)[C@H](CCC(N)=O)NC(=O)[C@H](C)NC(=O)[C@@H](NC(=O)[C@@H](N)Cc2c[nH]c3ccccc23)C(C)C)CCCC=CCCC[C@@](C)(C(=O)N[C@H](C(=O)N[C@@H](CC(N)=O)C(N)=O)C(C)C)NC(=O)[C@H](CC(=O)O)NC(=O)CNC1=O) [stapled M2-2 peptide] |  |  |  |  |  |  | IC50 (µM), MTT cytotoxicity assay, MDA231 cells [7]: 3.7 µM; IC50 (µM), MTT cytotoxicity assay, PC3 cells [8]: 4.7 µM; IC50 (µM), MTT cytotoxicity assay, MCF7 cells [10]: 5.7 µM; IC50 (µM), MTT cytotoxicity assay, HeLa cells [11]: 6.1 µM
WLAQLLRRIGDEIN-{linker-eCPX} (reading uncertain; also: printed as Trp-Leu-Ala-Gln-Leu-Leu-Arg-Arg-Ile-Gly-Asp-Glu-Ile-Asn, Clone selected against Mcl-1; not shown: eCPX display scaffold and its linker, fused C-terminal to the peptide) [Bim BH3 14-mer variant M2-4 displayed on eCPX] | 9.85 | 542 | 93.7 | 333 |  | 9.85 | 
WMAQILRRIGDEVN-{linker-eCPX} (reading uncertain; also: printed as Trp-Met-Ala-Gln-Ile-Leu-Arg-Arg-Ile-Gly-Asp-Glu-Val-Asn, Clone selected against Mcl-1; not shown: eCPX display scaffold and its linker, fused C-terminal to the peptide) [Bim BH3 14-mer variant M2-3 displayed on eCPX] |  |  |  |  |  | 11.5 | 
WIAQELRRIGDEFN-{linker-eCPX} (reading uncertain, also called WT; Bim WT; not shown: eCPX (enhanced circularly permuted OmpX) display scaffold and its linker, fused C-terminal to the peptide) [wild-type Bim BH3 14-mer peptide (residues 147-160) displayed on eCPX] | 37.7 | 594 | 97.9 | 251 | 251 | 37.7 | 
WIAQLLRRIGDEVN-{linker-eCPX} (reading uncertain; also: printed as Trp-Ile-Ala-Gln-Leu-Leu-Arg-Arg-Ile-Gly-Asp-Glu-Val-Asn, Clone selected against Mcl-1; not shown: eCPX display scaffold and its linker, fused C-terminal to the peptide) [Bim BH3 14-mer variant M2-1 displayed on eCPX] |  |  |  |  |  | 10.3 | 
WIAQQLRRIGDEFN (not fully specified, also called pseudo-wild-type Bim; Bim E151Q; not shown: eCPX display scaffold and the linker to it) [Bim BH3 14-mer E151Q (pseudo-wild-type) displayed on eCPX] | 45.2 | 642 | 175 | 47.4 |  |  | fold increase in apparent affinity against wild-type Bim 14-mer [6]: 5 fold
WIAQILRRIGDEFN (also called E1511; Bim E151I; not shown: eCPX display scaffold and the linker to it) [Bim BH3 14-mer E151I displayed on eCPX] |  |  |  |  |  |  | fold increase in apparent affinity against wild-type Bim 14-mer [13]: 2 fold
WVAQLLRRIGDEVN-{linker-eCPX} (reading uncertain; also: printed as Trp-Val-Ala-Gln-Leu-Leu-Arg-Arg-Ile-Gly-Asp-Glu-Val-Asn, Clone selected against Mcl-1; not shown: eCPX display scaffold and its linker, fused C-terminal to the peptide) [Bim BH3 14-mer variant M2-2 displayed on eCPX] | 5.8 |  |  | 2800 |  | 5.8 | fold increase in apparent affinity against wild-type Bim 14-mer [13]: 6 fold
WIAQLLRRIGDEFN (also called Bim E151L; pSZ55; not shown: eCPX display scaffold and the linker to it) [Bim BH3 14-mer E151L displayed on eCPX] |  |  |  |  |  |  | fold increase in apparent affinity against wild-type Bim 14-mer [13]: 2 fold
